Experimental data as given in PMC6177200, “EpCAM ectodomain EpEX is a ligand of EGFR that counteracts EGF-mediated epithelial-mesenchymal transition through modulation of phospho-ERK1/2 in head and neck cancers” (PLoS Biology, 2018).
“And” between values parts separate entries of the source, which are not always exact repeats. Identical values can stand only once. Each block holds one binder with its values, some of them ahead of it.

Assays:
[1] = target: T1, EpEX-Fc (extracellular domain of EpCAM fused to the constant region of human immunoglobulin 1) (human), P16422; assay: native gel or EMSA; purified EpEX-Fc in native versus reducing immunoblot experiments with specific antibodies; conditions: remark: other sources report otherwise
T1 chain: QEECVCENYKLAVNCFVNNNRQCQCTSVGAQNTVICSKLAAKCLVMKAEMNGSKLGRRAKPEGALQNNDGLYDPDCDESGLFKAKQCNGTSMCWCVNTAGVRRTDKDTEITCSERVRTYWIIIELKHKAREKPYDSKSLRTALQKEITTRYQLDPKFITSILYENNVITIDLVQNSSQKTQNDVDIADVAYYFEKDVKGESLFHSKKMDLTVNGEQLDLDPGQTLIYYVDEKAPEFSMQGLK

[2] = target: T2, EpEX (extracellular domain of EpCAM, aa 24-265), recombinant (human), P16422; assay: cross-linking; BS3 cross-linker (3.6 μg, 30 min, 37 °C); EpEX and EGF 250 pmol, EGFRex 50 pmol in 9 μl of 20 mM HEPES pH 8.0, 100 mM NaCl, 1 hr at 37 °C before; EGF added where indicated; conditions: remark: other sources report otherwise
T2 chain: T1 chain

[3] = target: epidermal growth factor receptor (EGFR), endogenous full-length (human (endogenous in FaDu, Cal27, HCT8), UniProt P00533 25-1210); assay: cell-based or functional assay
[4] = target: T3, EGFRex (extracellular domain of EGFR, aa 25-642) (UniProt P00533 25-642); assay: cross-linking; BS3 cross-linker (3.6 μg, 30 min, 37 °C); EpEX and EGF 250 pmol, EGFRex 50 pmol in 9 μl of 20 mM HEPES pH 8.0, 100 mM NaCl, 1 hr at 37 °C before; EGF added where indicated; conditions: both partners purified
T3 construct: extracellular domain of epidermal growth factor receptor, aa 25-642; source: expressed and purified as reported [118]

- stoichiometry N [1]: 2 and 3
B1: EpEX-Fc (extracellular domain of EpCAM fused to the constant region of human immunoglobulin 1), P16422 24-265 (Fc fusion)
chain: T1 chain
modifications: here or on the partner: N-glycosylated; N-glycosylated

- increase in cell numbers of serum-starved FaDu cells after 72 hr with high-dose EpEX (10 nM); blocked by Cetuximab [3]: 1.5 fold
- increase in cell numbers of serum-starved Kyse30 cells after 72 hr with EpEX-Fc (1 and 10 nM; low dose without significant effect); blocked by Cetuximab [3]: 2 fold
- pERK1/2 by immunofluorescence in cells treated for 30 min with EpEX-Fc (10 nM) compared to EGF (9 nM) [3]: 3 fold
B3: EpEX-Fc (extracellular domain of EpCAM fused to the constant region of human immunoglobulin 1) (Fc fusion, UniProt P16422 24-265, looked up)
chain: T1 chain
modifications: N-glycosylated

The remaining lines, values behind:

B2: EpEX (extracellular domain of EpCAM, aa 24-265), recombinant, P16422 24-265 (domain or fragment)
chain: T1 chain
- stoichiometry N [2]: 2

B4: EpEX (extracellular domain of EpCAM, aa 24-265), recombinant (domain or fragment, human, UniProt P16422 24-265, looked up)
chain: T1 chain
notes: extracellular domain of EpCAM, aa 24-265; also called purified recombinant EpEX; source: Sf9 insect cells, purified as described [47]
- stoichiometry N [4]: 1 EpEX per EGFRex and 2 EpEX per EGFRex
